Entries after “also recorded” stand apart in the source; their conditions may differ.
Key:
Cyno FGFR2b [1] = test: ELISA binding to recombinant cyno FGFR2b (Example 11)
human FGFR2b [2] = target: T1, human FGFR2b (Homo sapiens, UniProt P21802); test: ELISA binding to recombinant human FGFR2b (Example 11)
Human FGFR2c [3] = target: T2, Human FGFR2c (Homo sapiens, UniProt P21802); test: ELISA protein binding to human FGFR2c (Example 4); conditions: coated protein
Experimental: (§1) The binding affinity and specificity of purified anti-FGFR2b antibodies were determined by ELISA and FACS. […] After incubation and washing, the plates were developed with HRP substrate and absorbance was measured. […] After washing twice with FACS buffer, diluted Alexa Fluor 647 goat anti-human IgG secondary antibody was added and incubated with cells for 30 minutes at 4° C. in the dark. After washing twice with FACS buffer, cells were resuspended with FACS buffer and read using a Becton Dickinson LSR FortessaTM cell analyzer. Non-specific binding of these antibodies was evaluated by FACS binding against parental 293T blank cells. Titration curves were generated using a sigmoidal dose-response of nonlinear fit from GraphPadTM Software by Dotmatics.

human FGFR2b [4] = target: T1, human FGFR2b; test: FACS binding to native FGFR2b on Expi293 cells, human FGFR2b (Example 10); conditions: Expi293 cells overexpressing human FGFR2b
Experimental: (§2) To evaluate the binding activity of anti-FGFR2b antibodies to native FGFR2b on living cells, Expi293 cells were engineered to overexpress human FGFR2b, cyno FGFR2b, mouse FGFR2b, or human FGFR2c. Expi293 cells expressing antigens were seeded in 96-well plates, and were incubated with serially diluted anti-FGFR2b antibodies. Goat anti-human IgG [Alexa Fluor® 647] […] The change of mean fluorescent intensity (MFI) of humanized candidates BGAh9239 and BGAh9179 was measured by flow cytometry. EC50 values for dose-dependent binding to native human FGFR2b, cyno FGFR2b, mouse FGFR2b, and human FGFR2c were determined using sigmoidal dose-response curves of nonlinear fit from GraphPad Prism™.

Human FGFR2b OE cells = target: T3, Human FGFR2b OE cells (Homo sapiens, UniProt P21802); test: FACS cellular binding, human FGFR2b OE cells (Example 4)
T3 construct: expressed in transfected cells; host or cells: 293T
T3 sequence (P21802 22-822 isoform P21802-3 limits assumed): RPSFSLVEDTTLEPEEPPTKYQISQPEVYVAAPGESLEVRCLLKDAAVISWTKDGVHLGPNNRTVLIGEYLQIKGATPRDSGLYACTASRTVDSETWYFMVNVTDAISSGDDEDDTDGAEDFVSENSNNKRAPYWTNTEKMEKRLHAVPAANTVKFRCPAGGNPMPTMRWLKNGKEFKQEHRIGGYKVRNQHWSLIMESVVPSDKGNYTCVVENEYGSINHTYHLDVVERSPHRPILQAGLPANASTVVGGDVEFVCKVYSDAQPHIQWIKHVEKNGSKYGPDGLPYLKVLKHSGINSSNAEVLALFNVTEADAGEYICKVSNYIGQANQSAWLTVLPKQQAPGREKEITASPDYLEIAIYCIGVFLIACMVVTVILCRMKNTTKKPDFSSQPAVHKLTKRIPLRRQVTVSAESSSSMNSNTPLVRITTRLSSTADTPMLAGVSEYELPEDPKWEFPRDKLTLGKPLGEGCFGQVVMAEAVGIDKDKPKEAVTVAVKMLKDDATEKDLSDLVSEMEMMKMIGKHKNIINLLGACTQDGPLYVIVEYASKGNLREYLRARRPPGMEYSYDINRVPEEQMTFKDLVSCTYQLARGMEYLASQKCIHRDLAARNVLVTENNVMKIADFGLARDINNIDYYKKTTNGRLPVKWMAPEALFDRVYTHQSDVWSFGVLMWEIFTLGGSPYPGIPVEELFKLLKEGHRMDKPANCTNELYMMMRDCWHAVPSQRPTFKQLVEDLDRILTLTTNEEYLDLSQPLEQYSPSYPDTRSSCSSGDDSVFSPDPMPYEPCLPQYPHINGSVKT
Experimental: as §1

Mouse FGFR2b = target: T4, Mouse FGFR2b (Mus musculus, UniProt P21803); test: FACS binding on Expi293 cells, mouse FGFR2b (Example 10); conditions: Expi293 cells overexpressing mouse FGFR2b
T4 construct: expressed in transfected cells; host or cells: Expi293
T4 sequence (P21803 22-707 isoform P21803-2 limits assumed): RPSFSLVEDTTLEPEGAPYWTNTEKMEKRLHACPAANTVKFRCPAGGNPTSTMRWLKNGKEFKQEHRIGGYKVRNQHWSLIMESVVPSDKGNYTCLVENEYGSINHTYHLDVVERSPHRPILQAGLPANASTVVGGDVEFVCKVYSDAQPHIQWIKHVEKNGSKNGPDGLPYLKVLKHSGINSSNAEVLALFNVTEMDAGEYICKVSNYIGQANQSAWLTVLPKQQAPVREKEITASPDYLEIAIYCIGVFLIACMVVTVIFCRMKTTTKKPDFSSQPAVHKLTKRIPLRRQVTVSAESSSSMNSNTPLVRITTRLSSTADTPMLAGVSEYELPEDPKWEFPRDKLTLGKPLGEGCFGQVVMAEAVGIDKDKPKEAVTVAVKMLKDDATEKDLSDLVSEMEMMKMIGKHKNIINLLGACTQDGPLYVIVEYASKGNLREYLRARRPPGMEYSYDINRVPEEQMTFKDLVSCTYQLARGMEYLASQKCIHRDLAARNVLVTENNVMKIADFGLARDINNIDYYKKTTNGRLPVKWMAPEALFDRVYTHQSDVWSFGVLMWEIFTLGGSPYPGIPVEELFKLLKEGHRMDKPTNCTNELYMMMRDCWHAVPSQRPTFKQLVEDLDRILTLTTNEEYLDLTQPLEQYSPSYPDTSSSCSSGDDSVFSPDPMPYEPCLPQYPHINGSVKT
Experimental: as §2

293T blank cells = test: FACS non-specific binding, parental 293T blank cells (Example 4)
Experimental: as §1

Human FGFR2c [5] = target: T2, Human FGFR2c; test: ELISA binding to recombinant human FGFR2c (Example 11); conditions: for Emax (A450): human FGFR2c; for binding to human FGFR2c: in words
Human FGFR2c OE cells = Human FGFR2c OE cells (Homo sapiens, UniProt P21802); test: FACS cellular binding, human FGFR2c OE cells (Example 4)
Human FGFR2c OE cells, sequence (P21802 22-821): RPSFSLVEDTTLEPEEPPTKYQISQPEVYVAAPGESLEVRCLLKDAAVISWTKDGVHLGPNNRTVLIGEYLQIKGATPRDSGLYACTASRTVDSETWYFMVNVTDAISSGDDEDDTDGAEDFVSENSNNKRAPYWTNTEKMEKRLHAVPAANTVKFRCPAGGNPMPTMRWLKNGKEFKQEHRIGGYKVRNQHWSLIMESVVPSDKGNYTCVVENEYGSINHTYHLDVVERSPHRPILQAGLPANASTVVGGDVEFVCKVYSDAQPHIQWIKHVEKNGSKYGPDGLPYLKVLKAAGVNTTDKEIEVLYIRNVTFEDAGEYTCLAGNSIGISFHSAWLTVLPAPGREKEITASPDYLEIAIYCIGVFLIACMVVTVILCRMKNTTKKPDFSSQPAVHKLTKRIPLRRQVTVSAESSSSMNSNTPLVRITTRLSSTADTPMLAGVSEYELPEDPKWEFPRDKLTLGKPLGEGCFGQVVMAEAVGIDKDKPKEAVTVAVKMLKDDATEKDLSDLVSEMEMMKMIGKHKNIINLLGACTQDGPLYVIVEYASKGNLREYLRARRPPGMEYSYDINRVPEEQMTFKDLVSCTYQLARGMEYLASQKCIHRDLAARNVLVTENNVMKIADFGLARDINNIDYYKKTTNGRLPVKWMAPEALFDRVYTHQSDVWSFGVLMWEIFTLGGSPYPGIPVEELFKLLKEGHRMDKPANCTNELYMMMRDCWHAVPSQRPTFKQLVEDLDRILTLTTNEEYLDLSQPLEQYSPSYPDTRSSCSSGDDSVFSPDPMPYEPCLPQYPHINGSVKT
Experimental: as §1

Human FGFR2c [6] = target: T2, Human FGFR2c; test: FACS binding on Expi293 cells, human FGFR2c (Example 10); conditions: for Emax (MFI): Expi293 cells overexpressing human FGFR2c
Experimental: as §2

[7] = system: phosphorylated FGFR in SNU-16 cells; test: Inhibition of FGFR2 signaling in SNU-16 cells (Western blot of pFGFR); format: cell-based; conditions: antibody 10 μg/ml, FGF7 10 ng/ml, 2 hours
Experimental: Inhibition of the FGFR2 signaling pathway by the humanized antibodies was investigated. SNU-16 cells were grown in RPMI-1640 medium with 10% FBS, collected and washed twice with free medium and then seeded in 12-well plates at 1.5E6 cells/well in serum-free RPMI-1640. The plates were incubated at 37° C., 5% CO2, and 95% humidity in an incubator overnight. Anti-FGFR2b antibodies at a concentration of 10 μg/ml were added to the assay plates. Recombinant human FGF7 or FGF10 protein (10 ng/ml) in the presence of heparin (5 μg/ml) was added to the assay plates. The plates were incubated in a 37° C., 5% CO2, 95% humidity incubator for 2 hours. Following 2 hours incubation, cells were collected and washed twice with cold PBS. NP40 lysis buffer containing 1×PMSF and 1× Protease plus phosphatase inhibitors were added to the cell pellets. The mixture was pipetted up and down to suspend the pellet. The mixture was inverted gently and each placed for 10 minutes on ice, for a total of 30 minutes. The mixture was centrifuged at 12000× rpm for 10 minutes to pellet the cell debris. The supernatant was transferred to a new tube to quantify total protein concentration by BCA Kit. The protein samples were then split and stored at −80° C. for further Western blotting to detect the expression of pFGFR and total FGFR2.
Western blotting procedure: The completely thawed protein samples were mixed with 4×SDS loading buffer and were heated for 10 min at 37° C. Then the mixtures were centrifuged at ˜3500×rpm for 5 min. Equal amounts of proteins were loaded into an SDS-PAGE gel, whereafter proteins were transferred to PVDF membranes using iBlot. The membranes were then subjected to Western blotting analysis, focusing on phosphorylated FGFR and total FGFR2.

BaF3_hFGFR2b OE cells = test: Ligand-induced proliferation inhibition assay in BaF3_hFGFR2b OE cells; format: cell-based; conditions: antibody 10 μg/ml, heparin 5 μg/ml, 72 hours
Experimental: The inhibition activity of antibody on ligand-induced cell proliferation was evaluated in an FGFR2b engineered BaF3 cell line system (BaF3_hFGFR2b OE). BaF3 cells are dependent on interleukin-3 (IL-3) for growth. The BaF3 system allows for testing of kinases and kinase inhibitors. Some protein kinases can render BaF3 cells to be independent of IL-3, whereas kinase inhibitors antagonize this effect. Cells were seeded in 96-well plates at 30,000 cells/well in RPMI-1640 medium containing 10% fetal bovine serum. Anti-FGFR2b antibodies at a concentration of 10 μg/ml were added to the assay plates. Recombinant human FGF7 or FGF10 protein (40 ng/ml) in the presence of heparin (5 μg/ml) was added to the assay plates. The plates were incubated at 37° C., 5% CO2, 95% humidity in an incubator for 72 hours. Following incubation, 50 μl Cell Titer Glo reagent was added to each well and the plates were mixed for 1 min and then incubated at RT for 10 min. Luminescence signals were detected and recorded.
The Ba/F3 system is used to investigate downstream oncogenic signaling pathways and the susceptibility of driver variants to therapeutics. Driver-addicted Ba/F3 cells die when the driver-engaged signaling pathway is inhibited, and this effect can be rescued by re-introduction of […].
FIGS. 6 and 7 show the results of Ba/F3 proliferation assays. The net growth on Ba/F3 cells overexpressing FGFR2b is reported after treatment with anti-FGFR2b antibodies of the present disclosure. Normal Ba/F3 cells die shortly after withdrawal of exogenous […]. […] Comparator BGA2311 binds at the N-terminus and is not considered to be a ligand blocker. Thus, BGAm1371 may partially block the FGFR2b signaling pathway, such as the signaling pathway mediated by FGF7.

human FGFR2b [8] = target: T1, human FGFR2b; test: ELISA protein binding to human FGFR2b (Example 4); conditions: coated protein
Experimental: as §1

human FGFR2b [9] = target: T1, human FGFR2b; test: SPR affinity determination, human FGFR2b (Example 9); format: binding; conditions: for Kd: kd/ka
Experimental: (§3) For affinity determination, antibodies were captured by anti-human Fc antibodies, and used in the affinity assay based on surface plasmon resonance (SPR) technology. SPR signals were analyzed to calculate the association rates (ka) and dissociation rates (kd) by using the one-to-one Langmuir binding model (BIA Evaluation Software, GE Life Sciences). The equilibrium dissociation constant (KD) was calculated as the ratio of kd/ka. Rmax represents the maximal feasible SPR signal generated by an interaction between a ligand-analyte pair and is represented in response units (RU). BGAh9239 and BGA9179 show similar binding profiles to human FGFR2b and cyno FGFR2b, and are similar to their parental antibodies BGAm1823 and BGAm1371, respectively.

Cyno FGFR2b [10] = test: SPR affinity determination, cyno FGFR2b (Example 9); format: binding
Experimental: as §3

Murine FGFR2b OE cells = target: T5, Murine FGFR2b OE cells (Mus musculus, UniProt P21803); test: FACS cellular binding, murine FGFR2b OE cells (Example 4)
T5 construct: expressed in transfected cells; host or cells: 293T
T5 sequence (P21803 22-707 isoform P21803-2 limits assumed): as the sequence (P21803 22-707 isoform P21803-2 limits assumed) above
Experimental: as §1

[11] = target: T6, soluble human FGFR2b proteins (Homo sapiens, UniProt P21802); test: SPR binding kinetics (Biacore 8K, Example 5); conditions: room temperature
T6 construct: soluble human FGFR2b proteins (his tag, in-house generated); His tag; made in house
T6 sequence (P21802 22-378 isoform P21802-3 limits assumed): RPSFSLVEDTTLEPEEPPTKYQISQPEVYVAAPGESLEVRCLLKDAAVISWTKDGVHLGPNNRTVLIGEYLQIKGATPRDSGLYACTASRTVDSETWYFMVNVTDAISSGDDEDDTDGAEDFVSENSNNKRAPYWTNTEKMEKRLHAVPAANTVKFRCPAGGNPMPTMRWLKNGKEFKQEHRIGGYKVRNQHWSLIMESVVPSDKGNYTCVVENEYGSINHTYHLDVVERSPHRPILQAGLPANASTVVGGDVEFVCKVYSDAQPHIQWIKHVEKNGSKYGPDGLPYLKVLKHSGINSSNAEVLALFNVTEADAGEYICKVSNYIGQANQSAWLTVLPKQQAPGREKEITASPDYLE
Experimental: The binding affinity and kinetics of purified anti-FGFR2b antibodies were determined by surface plasmon resonance (Biacore 8K, GE Life Sciences) at room temperature. Briefly, mouse anti-human IgG Fc antibody was immobilized via amine coupling onto a activated CM5 biosensor chip (Cat. No. BR100530, GE Life Sciences). Purified monoclonal antibody candidates were flowed over the chip surface and captured by anti-human IgG antibody. Then a serial dilution of soluble human FGFR2b proteins (his tag, in-house generated) were injected over the antibodies captured surface and changes in surface plasmon resonance signals were analyzed to calculate the association rates (kon) and dissociation rates (koff) by using the one-to-one Langmuir binding model (BIA Evaluation Software, GE Life Sciences). The equilibrium dissociation constant (KD) was calculated as the ratio koff/kon.

T2 sequence (P21802 22-821): as the sequence (P21802 22-821) above
T1 sequence (P21802 22-822 isoform P21802-3 limits assumed): as the sequence (P21802 22-822 isoform P21802-3 limits assumed) above

B1: BGAm1371: parental murine anti-FGFR2b antibody (parental mouse clone); VH SEQ ID NO: 32, VL SEQ ID NO: 34 (antibody, V domains shown)
VH: QVQLKQSGAELVKPGASVKLSCTASGFNIKDTYIHWVKQRPEQGLEWIGRIDPANGNTMFASEFQGKATITAYTSSNTAYMQLSSLTSGDTAVYYCARSKIHYDYDEGFAYWGQGTLVTVSS
VL: NIVLTQSPPSLAVSLGQRATVSCRASESVDDYGYSFLHWYQQKPGQPPKLLIYRASNLESGIPARFSGSGSRTDFTLTINPVETDDVATYYCQQSNQNPRTFGGGTKLEIK
modifications: Synthetic: VH AA; Synthetic: VL AA
Cyno FGFR2b [1]
  Emax (A450): 3.018 A450
Human FGFR2b [2]
  EC50: 0.0309 nM
  Emax (A450): 3.013 A450
Human FGFR2c [3]
  Human FGFR2c binding Emax(OD450): 0.07 OD450
Human FGFR2b [4]
  EC50: 1.5 nM
  Emax (MFI): 3052664 MFI
Human FGFR2b OE cells
  EC50: 1.25 nM
Mouse FGFR2b
  EC50: 3.5 nM
  Emax (MFI): 4984598 MFI
293T blank cells
  293T blank cells binding Emax: 28 MFI
Human FGFR2c [5]
  Emax (A450): 0.204 A450
  binding to human FGFR2c: no detectable binding
Human FGFR2c OE cells
  Human FGFR2c OE cells binding Emax: 33 MFI
Human FGFR2c [6]
  Emax (MFI): 23051 MFI
[7]
  FGF7-induced FGFR phosphorylation: weakly inhibited
BaF3_hFGFR2b OE cells; FGF7 40 ng/ml
  inhibition of FGF7-induced BaF3_hFGFR2b cell proliferation: ten times less potent compared to BGA1421 and BGAm1823; also recorded: weaker blocking than comparator BGA1421
BaF3_hFGFR2b OE cells; FGF10 40 ng/ml
  inhibition of FGF10-induced BaF3_hFGFR2b cell proliferation: did not inhibit the net growth
Human FGFR2b [8]
  EC50: 0.19 nM
  Human FGFR2b binding Emax(OD450): 3.35 OD450
Human FGFR2b [9]
  Rmax: 96.3 RU
  ka: 7.29E+04 M^−1S^−1
  kd: 1.19E−03 S^−1
  Kd: 16.3 nM
Cyno FGFR2b [10]
  ka: 7.97E+04 M^−1S^−1
  kd: 1.25E−03 S^−1
Murine FGFR2b OE cells
  EC50: 1.78 nM

B2: BGAh9239: humanized anti-FGFR2b IgG1 antibody from murine BGAm1823; VH SEQ ID NO: 9, VL SEQ ID NO: 10 (antibody, V domains shown)
VH: QVQLVQSGAEVKKPGSSVKVSCKASGYTFSIYWLNWVRQAPGQGLEWMGQIYPENADTNYSGKFKGRVTITADKSTSTAYMELSSLRSEDTAVYFCARGGFDYWGQGTLVTVSS
VL: DIQMTQSPSSLSASVGDRVTITCRASENIYSNLAWYQQKPGKAPKLLIYTATNLAEGVPSRFSGSGSGTDFTLTISSLQPEDFATYYCQHFYGILYTFGQGTRLEIK
modifications: Synthetic: VH AA; Synthetic: VL AA
Cyno FGFR2b [1]
  Emax (A450): 2.931 A450
Human FGFR2b [2]
  EC50: 0.031 nM
  Emax (A450): 2.945 A450
Human FGFR2c [3]
  Human FGFR2c binding Emax(OD450): 0.07 OD450
Human FGFR2b [4]
  EC50: 2.4 nM
  Emax (MFI): 3082608 MFI
Human FGFR2b OE cells
  EC50: 1.84 nM
Mouse FGFR2b
  EC50: 2.67 nM
  Emax (MFI): 5098781 MFI
293T blank cells
  293T blank cells binding Emax: 31 MFI
Human FGFR2c [5]
  Emax (A450): 0.130 A450
  binding to human FGFR2c: no detectable binding
Human FGFR2c OE cells
  Human FGFR2c OE cells binding Emax: 36 MFI
Human FGFR2c [6]
  Emax (MFI): 23848 MFI
Human FGFR2c [6]; living Expi293 cells, in words
  binding to native human FGFR2c: no detectable binding
[11]; antibody captured
  ka: 76600 M⁻¹ s⁻¹
  kd: 0.00189 s⁻¹
[11]; koff/kon
  Kd: 24.7 nM
Human FGFR2b [8]
  EC50: 0.26 nM
  Human FGFR2b binding Emax(OD450): 3.37 OD450
Human FGFR2b [9]
  Rmax: 80.9 RU
  ka: 8.05E+04 M^−1S^−1
  kd: 3.00E−03 S^−1
  Kd: 37.3 nM
Cyno FGFR2b [10]
  ka: 7.99E+04 M^−1S^−1
  kd: 2.72E−03 S^−1
Murine FGFR2b OE cells
  EC50: 1.59 nM
